The source of these data is patent US10584350B2, “Structurally modified COI1” (Board of Trustees of Michigan State University, priority 2016, dated 2020).

The assay concerns COI1-JAZ9 interaction. In words: Y2H assays on plates for protein-protein interaction. The settings on record: 10 μM COR, yeast. Format: cell-based, Arabidopsis. The method, then: Yeast EGY48 strain carrying the p8Op:LacZ reporter plasmid was co-transformed with pGilda:COI1 (or COI1 mutants) and pB42AD:JAZ9 (or other JAZs) (Clontech). Colonies were selected on SD minimal plates (BD Biosciences) supplemented with the—uracil (U)/-tryptophan (W)/-histidine (H) amino acid drop out solution (Clontech). Yeast colonies were cultured overnight in liquid SD-UWH medium, harvested, washed twice in sterile water, and the absorbance (OD600) of the cultures was adjusted to 0.2 in liquid SD galactose/raffinose-UWH medium (BD Biosciences).
For Y2H assays on plates, 10-μL culture was spotted onto SD galactose/raffinose-UWH plates with 80 μg/mL X-gal and 10 μM COR (Sigma-Aldrich). Blue color indicated protein-protein interactions after 5-7 days of incubation at 30° C.

B1: Y302A: COI1 alanine substitution mutant at Y302 (protein)
chain: MEDPDIKRCKLSCVATVDDVIEQVMTYITDPKDRDSASLVCRRWFKIDSETREHVTMALCYTATPDRLSRRFPNLRSLKLKGKPRAAMFNLIPENWGGYVTPWVTEISNNLRQLKSVHFRRMIVSDLDLDRLAKARADDLETLKLDKCSGFTTDGLLSIVTHCRKIKTLLMEESSFSEKDGKWLHELAQHNTSLEVLNFYMTEFAKISPKDLETIARNCRSLVSVKVGDFEILELVGFFKAAANLEEFCGGSLNEDIGMPEKYMNLVFPRKLCRLGLSYMGPNEMPILFPFAAQIRKLDLLAALLETEDHCTLIQKCPNLEVLETRNVIGDRGLEVLAQYCKQLKRLRIERGADEQGMEDEEGLVSQRGLIALAQGCQELEYMAVYVSDITNESLESIGTYLKNLCDFRLVLLDREERITDLPLDNGVRSLLIGCKKLRRFAFYLRQGGLTDLGLSYIGQYSPNVRWMLLGYVGESDEGLMEFSRGCPNLQKLEMRGCCFSERAIAAAVTKLPSLRYLWVQGYRASMTGQDLMQMARPYWNIELIPSRRVPEVNQQGEIREMEHPAHILAYYSLAGQRTDCPTTVRVLKEPI
For B1, the “COR-dependent COI1-JAZ9 interaction” value is recorded as “disrupted”. Further, the “COR-dependent COI1-JAZ9 interaction” value (listed as Y302) was “reduced”.

B2: F89: COI1 alanine substitution mutant at F89 (protein, UniProt O04197 1-592, looked up, variant F89A)
Coronatine-insensitive …: MEDPDIKRCKLSCVATVDDVIEQVMTYITDPKDRDSASLVCRRWFKIDSETREHVTMALCYTATPDRLSRRFPNLRSLKLKGKPRAAMANLIPENWGGYVTPWVTEISNNLRQLKSVHFRRMIVSDLDLDRLAKARADDLETLKLDKCSGFTTDGLLSIVTHCRKIKTLLMEESSFSEKDGKWLHELAQHNTSLEVLNFYMTEFAKISPKDLETIARNCRSLVSVKVGDFEILELVGFFKAAANLEEFCGGSLNEDIGMPEKYMNLVFPRKLCRLGLSYMGPNEMPILFPFAAQIRKLDLLYALLETEDHCTLIQKCPNLEVLETRNVIGDRGLEVLAQYCKQLKRLRIERGADEQGMEDEEGLVSQRGLIALAQGCQELEYMAVYVSDITNESLESIGTYLKNLCDFRLVLLDREERITDLPLDNGVRSLLIGCKKLRRFAFYLRQGGLTDLGLSYIGQYSPNVRWMLLGYVGESDEGLMEFSRGCPNLQKLEMRGCCFSERAIAAAVTKLPSLRYLWVQGYRASMTGQDLMQMARPYWNIELIPSRRVPEVNQQGEIREMEHPAHILAYYSLAGQRTDCPTTVRVLKEPI
In the case of B2, the “COR-dependent COI1-JAZ9 interaction” value was “reduced”.

B3: E173: COI1 alanine substitution mutant at E173 (protein, UniProt O04197 1-592, looked up, variant E173A)
Coronatine-insensitive …: MEDPDIKRCKLSCVATVDDVIEQVMTYITDPKDRDSASLVCRRWFKIDSETREHVTMALCYTATPDRLSRRFPNLRSLKLKGKPRAAMFNLIPENWGGYVTPWVTEISNNLRQLKSVHFRRMIVSDLDLDRLAKARADDLETLKLDKCSGFTTDGLLSIVTHCRKIKTLLMEASSFSEKDGKWLHELAQHNTSLEVLNFYMTEFAKISPKDLETIARNCRSLVSVKVGDFEILELVGFFKAAANLEEFCGGSLNEDIGMPEKYMNLVFPRKLCRLGLSYMGPNEMPILFPFAAQIRKLDLLYALLETEDHCTLIQKCPNLEVLETRNVIGDRGLEVLAQYCKQLKRLRIERGADEQGMEDEEGLVSQRGLIALAQGCQELEYMAVYVSDITNESLESIGTYLKNLCDFRLVLLDREERITDLPLDNGVRSLLIGCKKLRRFAFYLRQGGLTDLGLSYIGQYSPNVRWMLLGYVGESDEGLMEFSRGCPNLQKLEMRGCCFSERAIAAAVTKLPSLRYLWVQGYRASMTGQDLMQMARPYWNIELIPSRRVPEVNQQGEIREMEHPAHILAYYSLAGQRTDCPTTVRVLKEPI
B3: the “COR-dependent COI1-JAZ9 interaction” value is on record as “reduced”.

B4: R326A: COI1 alanine substitution mutant at R326 (protein)
chain: MEDPDIKRCKLSCVATVDDVIEQVMTYITDPKDRDSASLVCRRWFKIDSETREHVTMALCYTATPDRLSRRFPNLRSLKLKGKPRAAMFNLIPENWGGYVTPWVTEISNNLRQLKSVHFRRMIVSDLDLDRLAKARADDLETLKLDKCSGFTTDGLLSIVTHCRKIKTLLMEESSFSEKDGKWLHELAQHNTSLEVLNFYMTEFAKISPKDLETIARNCRSLVSVKVGDFEILELVGFFKAAANLEEFCGGSLNEDIGMPEKYMNLVFPRKLCRLGLSYMGPNEMPILFPFAAQIRKLDLLYALLETEDHCTLIQKCPNLEVLETANVIGDRGLEVLAQYCKQLKRLRIERGADEQGMEDEEGLVSQRGLIALAQGCQELEYMAVYVSDITNESLESIGTYLKNLCDFRLVLLDREERITDLPLDNGVRSLLIGCKKLRRFAFYLRQGGLTDLGLSYIGQYSPNVRWMLLGYVGESDEGLMEFSRGCPNLQKLEMRGCCFSERAIAAAVTKLPSLRYLWVQGYRASMTGQDLMQMARPYWNIELIPSRRVPEVNQQGEIREMEHPAHILAYYSLAGQRTDCPTTVRVLKEPI
Consider B4, for which the “COR-dependent COI1-JAZ9 interaction” value is “disrupted”. The “COR-dependent COI1-JAZ9 interaction” value (listed as R326) is “reduced”.

B5: L91: COI1 alanine substitution mutant at L91 (protein, UniProt O04197 1-592, looked up, variant L91A)
Coronatine-insensitive …: MEDPDIKRCKLSCVATVDDVIEQVMTYITDPKDRDSASLVCRRWFKIDSETREHVTMALCYTATPDRLSRRFPNLRSLKLKGKPRAAMFNAIPENWGGYVTPWVTEISNNLRQLKSVHFRRMIVSDLDLDRLAKARADDLETLKLDKCSGFTTDGLLSIVTHCRKIKTLLMEESSFSEKDGKWLHELAQHNTSLEVLNFYMTEFAKISPKDLETIARNCRSLVSVKVGDFEILELVGFFKAAANLEEFCGGSLNEDIGMPEKYMNLVFPRKLCRLGLSYMGPNEMPILFPFAAQIRKLDLLYALLETEDHCTLIQKCPNLEVLETRNVIGDRGLEVLAQYCKQLKRLRIERGADEQGMEDEEGLVSQRGLIALAQGCQELEYMAVYVSDITNESLESIGTYLKNLCDFRLVLLDREERITDLPLDNGVRSLLIGCKKLRRFAFYLRQGGLTDLGLSYIGQYSPNVRWMLLGYVGESDEGLMEFSRGCPNLQKLEMRGCCFSERAIAAAVTKLPSLRYLWVQGYRASMTGQDLMQMARPYWNIELIPSRRVPEVNQQGEIREMEHPAHILAYYSLAGQRTDCPTTVRVLKEPI
Take B5: the “COR-dependent COI1-JAZ9 interaction” value is on record as “reduced”.

B6: R121: COI1 alanine substitution mutant at R121 (protein, UniProt O04197 1-592, looked up, variant R121A)
Coronatine-insensitive …: MEDPDIKRCKLSCVATVDDVIEQVMTYITDPKDRDSASLVCRRWFKIDSETREHVTMALCYTATPDRLSRRFPNLRSLKLKGKPRAAMFNLIPENWGGYVTPWVTEISNNLRQLKSVHFRAMIVSDLDLDRLAKARADDLETLKLDKCSGFTTDGLLSIVTHCRKIKTLLMEESSFSEKDGKWLHELAQHNTSLEVLNFYMTEFAKISPKDLETIARNCRSLVSVKVGDFEILELVGFFKAAANLEEFCGGSLNEDIGMPEKYMNLVFPRKLCRLGLSYMGPNEMPILFPFAAQIRKLDLLYALLETEDHCTLIQKCPNLEVLETRNVIGDRGLEVLAQYCKQLKRLRIERGADEQGMEDEEGLVSQRGLIALAQGCQELEYMAVYVSDITNESLESIGTYLKNLCDFRLVLLDREERITDLPLDNGVRSLLIGCKKLRRFAFYLRQGGLTDLGLSYIGQYSPNVRWMLLGYVGESDEGLMEFSRGCPNLQKLEMRGCCFSERAIAAAVTKLPSLRYLWVQGYRASMTGQDLMQMARPYWNIELIPSRRVPEVNQQGEIREMEHPAHILAYYSLAGQRTDCPTTVRVLKEPI
As for B6, the “COR-dependent COI1-JAZ9 interaction” value is recorded as “reduced”.

B7: R348: COI1 alanine substitution mutant at R348 (protein, UniProt O04197 1-592, looked up, variant R348A)
Coronatine-insensitive …: MEDPDIKRCKLSCVATVDDVIEQVMTYITDPKDRDSASLVCRRWFKIDSETREHVTMALCYTATPDRLSRRFPNLRSLKLKGKPRAAMFNLIPENWGGYVTPWVTEISNNLRQLKSVHFRRMIVSDLDLDRLAKARADDLETLKLDKCSGFTTDGLLSIVTHCRKIKTLLMEESSFSEKDGKWLHELAQHNTSLEVLNFYMTEFAKISPKDLETIARNCRSLVSVKVGDFEILELVGFFKAAANLEEFCGGSLNEDIGMPEKYMNLVFPRKLCRLGLSYMGPNEMPILFPFAAQIRKLDLLYALLETEDHCTLIQKCPNLEVLETRNVIGDRGLEVLAQYCKQLKRLAIERGADEQGMEDEEGLVSQRGLIALAQGCQELEYMAVYVSDITNESLESIGTYLKNLCDFRLVLLDREERITDLPLDNGVRSLLIGCKKLRRFAFYLRQGGLTDLGLSYIGQYSPNVRWMLLGYVGESDEGLMEFSRGCPNLQKLEMRGCCFSERAIAAAVTKLPSLRYLWVQGYRASMTGQDLMQMARPYWNIELIPSRRVPEVNQQGEIREMEHPAHILAYYSLAGQRTDCPTTVRVLKEPI
Take B7: the “COR-dependent COI1-JAZ9 interaction” value was “reduced”.

B8: Y444A: COI1 alanine substitution mutant at Y444 (protein)
chain: MEDPDIKRCKLSCVATVDDVIEQVMTYITDPKDRDSASLVCRRWFKIDSETREHVTMALCYTATPDRLSRRFPNLRSLKLKGKPRAAMFNLIPENWGGYVTPWVTEISNNLRQLKSVHFRRMIVSDLDLDRLAKARADDLETLKLDKCSGFTTDGLLSIVTHCRKIKTLLMEESSFSEKDGKWLHELAQHNTSLEVLNFYMTEFAKISPKDLETIARNCRSLVSVKVGDFEILELVGFFKAAANLEEFCGGSLNEDIGMPEKYMNLVFPRKLCRLGLSYMGPNEMPILFPFAAQIRKLDLLYALLETEDHCTLIQKCPNLEVLETRNVIGDRGLEVLAQYCKQLKRLRIERGADEQGMEDEEGLVSQRGLIALAQGCQELEYMAVYVSDITNESLESIGTYLKNLCDFRLVLLDREERITDLPLDNGVRSLLIGCKKLRRFAFALRQGGLTDLGLSYIGQYSPNVRWMLLGYVGESDEGLMEFSRGCPNLQKLEMRGCCFSERAIAAAVTKLPSLRYLWVQGYRASMTGQDLMQMARPYWNIELIPSRRVPEVNQQGEIREMEHPAHILAYYSLAGQRTDCPTTVRVLKEPI
For the molecule B8, the “COR-dependent COI1-JAZ9 interaction” value is on record as “disrupted”. Besides, where the note is “listed as Y444”, the “COR-dependent COI1-JAZ9 interaction” value is recorded as “reduced”.
